Substitutions are numbered along the chain they refer to. Each block holds one binder with its values, some of them ahead of it.
What was measured:
Experiment in all cases: yeast two-hybrid; prey clone found with the bait of the row
[1] = biological target: T1, PRAK NUC 201-1104 (bait, no mutation) (UniProt Q8IW41 1-301)
T1 construct: Limits printed as nucleotides only; also called Protein Kinase PRAK
T1 sequence (looked up): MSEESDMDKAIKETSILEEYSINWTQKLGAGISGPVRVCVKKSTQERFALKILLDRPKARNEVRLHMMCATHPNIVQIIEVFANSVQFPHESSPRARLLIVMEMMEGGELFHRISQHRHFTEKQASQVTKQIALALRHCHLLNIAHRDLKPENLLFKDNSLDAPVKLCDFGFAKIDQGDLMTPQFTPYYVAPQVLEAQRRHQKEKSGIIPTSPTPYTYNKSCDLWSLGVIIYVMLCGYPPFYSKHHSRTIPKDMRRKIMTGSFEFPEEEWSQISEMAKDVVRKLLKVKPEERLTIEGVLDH
Description: (§1) A total human brain (person) cDNA library cloned into the yeast expression vector pACT2 was purchased from Clontech (human brain […] cDNA, cat. # HL4004AH), transformed into the yeast strain J692 (genotype of this strain: Mat a, ade2, his3, leu2, trp1, URA3::GAL1-lacZ LYS2::GAL1-HIS3 ga14del ga180del cyhR2), and selected for the ability to drive leucine synthesis. In these yeast cells, each cDNA is expressed as a fusion protein with the transcription activation domain of the transcription factor Ga14 (amino acids 768 to 881) and a 9 amino acid hemagglutinin epitope tag. J693 cells (Mat α type) expressing the bait were then mated with J692 cells (Mat a type) expressing proteins from the brain library. The resulting diploid yeast cells expressing proteins interacting with the bait protein were selected for the ability to synthesize tryptophan, leucine, histidine, and β-galactosidase. DNA was prepared from each clone, transformed by electroporation into E. coli strain KC8 (Clontech KC8 electrocompetent cells, cat. # C2023-1), and the cells were selected on ampicillin-containing plates in the absence of either tryptophane (selection for the bait plasmid) or leucine (selection for the brain library plasmid). DNA for both plasmids was prepared and sequenced by di-deoxynucleotide chain termination method. The identity of the bait cDNA insert was confirmed and the cDNA insert from the brain library plasmid was identified using BLAST program against public nucleotides and protein databases. Plasmids from the brain library (preys) were then individually transformed into yeast cells together with a plasmid driving the synthesis of lamin fused to the Ga14 DNA binding domain. Clones that gave a positive signal after β-galactosidase assay were considered false-positives and discarded. Plasmids for the remaining clones were transformed into yeast cells together with plasmid for the original bait. Clones that gave a positive signal after β-galactosidase assay were considered true positives.
(§2) The “AA” refers to the amino acids of the bait or prey. The “NUC” refers to the nucleotides of the bait or prey.

[2] = biological target: T2, PRAK NUC 201-1104 K51M (bait) (UniProt Q8IW41 1-301)
T2 construct: Limits printed as nucleotides only; also called Protein Kinase PRAK
T2 sequence (looked up): T1 sequence (looked up) with K51M
Description: as §1, §2

[3] = biological target: T3, PRAK NUC 201-1104 K51M, T182D (bait) (UniProt Q8IW41 1-301)
T3 construct: Limits printed as nucleotides only; also called Protein Kinase PRAK
T3 sequence (looked up): T1 sequence (looked up) with K51M, T182D
Description: as §1, §2

[4] = biological target: T4, MAPKAP-K3 NUC 433-1003 (bait) (UniProt Q16644 114-304)
T4 construct: range 114-304; also called MAP Kinase MAPKAP-K3
T4 sequence (Q16644 114-304 limits assumed): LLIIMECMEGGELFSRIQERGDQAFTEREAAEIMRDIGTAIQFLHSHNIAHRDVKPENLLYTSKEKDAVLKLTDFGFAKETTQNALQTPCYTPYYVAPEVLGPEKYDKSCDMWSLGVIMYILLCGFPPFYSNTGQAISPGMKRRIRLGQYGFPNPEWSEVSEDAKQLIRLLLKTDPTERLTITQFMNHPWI
Description: as §1, §2

[5] = biological target: T5, Profilin II amino acids 4-91 (prey) (human, UniProt P35080 4-91)
T5 construct: range 4-91
T5 sequence (looked up): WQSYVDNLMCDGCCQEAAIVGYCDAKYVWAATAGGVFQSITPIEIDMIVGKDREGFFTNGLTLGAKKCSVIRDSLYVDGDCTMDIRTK
Description: as §1, §2

[6] = biological target: T6, p38 gamma amino acids 29-368 (bait) (UniProt P53778 29-367)
T6 construct: range 29-368; also called Protein Kinase p38 gamma; p38 gamma kinase
T6 sequence (looked up): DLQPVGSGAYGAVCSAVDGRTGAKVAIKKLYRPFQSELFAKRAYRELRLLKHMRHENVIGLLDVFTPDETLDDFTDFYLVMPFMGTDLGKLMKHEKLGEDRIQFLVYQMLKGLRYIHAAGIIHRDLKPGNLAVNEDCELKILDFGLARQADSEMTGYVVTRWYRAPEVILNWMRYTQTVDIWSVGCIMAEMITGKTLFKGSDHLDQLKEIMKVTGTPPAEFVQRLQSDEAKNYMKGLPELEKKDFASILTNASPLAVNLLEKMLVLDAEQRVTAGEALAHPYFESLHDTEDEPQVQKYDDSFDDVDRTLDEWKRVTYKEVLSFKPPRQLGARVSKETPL
Description: as §1, §2

B1: MLK2 amino acids 398-556 (prey) (enzyme, human, UniProt Q02779 398-556, looked up)
chain: LRSREEELLRAAQEQRFQEEQLRRREQELAEREMDIVERELHLLMCQLSQEKPRVRKRKGNFKRSRLLKLREGGSHISLPSGFEHKITVQASPTLDKRKGSDGASPPASPSIIPRLRAIRLTPVDCGGSSSGSSSGGSGTWSRGGPPKKEELVGGKKKG
notes: range 398-556; also called mixed lineage kinase
binding result [1]: binds | binding result [2]: binds

B2: Homer-3 NUC 774-1152 (prey) (other, human, UniProt Q9NSC5 228-354, looked up)
chain: RQRVAELEAQAASEVTPTGEKEGLGQGQSLEQLEALVQTKDQEIQTLKSQTGGPREALEAAEREETQQKVQDLETRNAELEHQLRAMERSLEEARAERERARAEVGRAAQLLDVSLFELSELREGLA
notes: Limits printed as nucleotides only
binding result [3]: binds

B3: Homer-3 NUC 720-1152 (prey) (other, human, UniProt Q9NSC5 210-354, looked up)
chain: AAQWRQQLEAQRAEAERLRQRVAELEAQAASEVTPTGEKEGLGQGQSLEQLEALVQTKDQEIQTLKSQTGGPREALEAAEREETQQKVQDLETRNAELEHQLRAMERSLEEARAERERARAEVGRAAQLLDVSLFELSELREGLA
binding result [4]: binds

B4: ERF-2 amino acids 7-192 (prey) (other, human, UniProt P47974 7-192, looked up)
chain: SAFYDVDFLCKTEKSLANLNLNNMLDKKAVGTPVAAAPSSGFAPGFLRRHSASNLHALAHPAPSPGSCSPKFPGAANGSSCGSAAAGGPTSYGTLKEPSGGGGTALLNKENKFRDRSFSENGDRSQHLLHLQQQQKGGGGSQINSTRYKTELCRPFEESGTCKYGEKCQFAHGFHELRSLTRHPKY
notes: range 7-192; also called TIS11D
binding result [4]: binds

B10: Nuclear Mitotic Apparatus Protein 1 (NuMA1) NUC 1394-1711 (prey) (other, human, UniProt Q14980 413-519, looked up)
chain: LQLETLKQEAATLAANNTQLQARVEMLETERGQQEAKLLAERGHFEEEKQQLSSLITDLQSSISNLSQAKEELEQASQAHGARLTAQVASLTSELTTLNATIQQQDQ
notes: as for B2
binding result [3]: binds

Next, values leading:

binding result [4]: binds
B5: Vimentin amino acids 309-463 (prey) (other, human, UniProt P08670 309-463, looked up)
chain: LRQAKQESTEYRRQVQSLTCEVDALKGTNESLERQMREMEENFAVEAANYQDTIGRLQDEIQNMKEEMARHLREYQDLLNVKMALDIEIATYRKLLEGEESRISLPLPNFSSLNLRETNLDSLPLVDTHSKRTLLIKTVETRDGQVINETSQHHD
notes: range 309-463

binding result [3]: binds
B6: Histone Acetyl Transferase 1 (HAT1) amino acids 334-420 (prey) (enzyme, human, UniProt O14929 334-419, looked up)
chain: ILRLLVTDMSDAEQYRSYRLDIKRRLISPYKKKQRDLAKMRKCLRPEELTNQMNQIEISMQHEQLEESFQELVEDYRRVIERLAQE
notes: range 334-420

binding result [5]: binds
B7: TIAR amino acids 1-48 (bait) (other)
chain: MMEDDGQPRTLYVGNLSRDVTEVLILQLFSQIGPCKSCKMITEHTSND

binding result [6]: binds
B8: DLG2 amino acids 294-594 (prey) (other, human, UniProt Q15700 294-594, looked up)
chain: THSYSPPMENHLLSGNNGTLEYKTSLPPISPGRYSPIPKHMLVDDDYTRPPEPVYSTVNKLCDKPASPRHYSPVECDKSFLLSAPYSHYHLGLLPDSEMTSHSQHSTATRQPSMTLQRAVSLEGEPRKVVLHKGSTGLGFNIVGGEDGEGIFVSFILAGGPADLSGELQRGDQILSVNGIDLRGASHEQAAAALKGAGQTVTIIAQYQPEDYARFEAKIHDLREQMMNHSMSSGSGSLRTNQKRSLYVRAMFDYDKSKDSGLPSQGLSFKYGDILHVINASDDEWWQARRVMLEGDSEEMG
notes: range 294-594; also called chapsyn-110

binding result [4]: binds
B9: Nuclear Mitotic Apparatus Protein 1 (NuMA1) NUC 1395-1713 (prey) (other, human, UniProt Q14980 413-519, looked up)
chain: B10 chain
notes: range 413-519

Reference: patent publication US20020102606A1 (published 2002)
